Results as given in patent US20060008846A1 (RESEARCH DEVELOPMENT FOUNDATION, published 2006).
Positions count from the first letter of the chain named. In names and notes the source's numbering stands.

T1: ALK4 (activin type I receptor) (UniProt P36896)
T1 sequence (looked up): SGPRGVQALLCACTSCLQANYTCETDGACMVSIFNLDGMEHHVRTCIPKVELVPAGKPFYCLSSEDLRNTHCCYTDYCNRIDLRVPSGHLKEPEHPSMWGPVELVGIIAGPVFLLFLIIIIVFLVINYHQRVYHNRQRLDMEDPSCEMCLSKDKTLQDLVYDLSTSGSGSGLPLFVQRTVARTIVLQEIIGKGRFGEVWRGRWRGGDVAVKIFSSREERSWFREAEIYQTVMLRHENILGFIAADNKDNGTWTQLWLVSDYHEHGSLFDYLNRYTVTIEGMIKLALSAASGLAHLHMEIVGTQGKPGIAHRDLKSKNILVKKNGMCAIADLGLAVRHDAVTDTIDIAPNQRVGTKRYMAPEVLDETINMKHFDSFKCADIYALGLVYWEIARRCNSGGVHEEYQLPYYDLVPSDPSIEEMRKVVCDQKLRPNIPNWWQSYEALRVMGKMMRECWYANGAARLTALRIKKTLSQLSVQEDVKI

T2: ALK4 (activin type I receptor) (UniProt P36896 24-505, limits assumed)
T2 sequence (looked up): T1 sequence (looked up)

B1: activin-A (M108A), P08476 311-426 (ligand, human, UniProt P08476 311-426, looked up)
chain: GLECDGKVNICCKKQFFVSFKDIGWNDWIIAPSGYHANYCEGECPSHIAGTSGSSLSFHSTVINHYRMRGHSPFANLKSCCVPTKLRPMSMLYYDDGQNIIKKDIQNAIVEECGCS
B2: activin-A/C chimera A/C 46-78 (ligand, UniProt P08476 311-355, looked up)
chain: GLECDGKVNICCKKQFFVSFKDIGWNDWIIAPSGYHANYCEGECPLHIAGMPGIAASFHTAVLNLLKANTAAGTTGGGSCCVPTKLRPMSMLYYDDGQNIIKKDIQNMIVEECGCS
notes: range 1-45 of the mature chain;range 46-78 of the mature chain;range 79 to C-terminus of the mature chain; also called A/C 46-78 chimera
B3: activin-A/C chimera A/C 64-69 (ligand, UniProt P08476 311-373, looked up)
chain: B1 chain with H65L, Y66L, R67K, M68A, R69N, A108M
notes: range 1-63 of the mature chain;range 64-69 of the mature chain;range 70 to C-terminus of the mature chain
B4: activin-A/C chimera A/C 54-63 (ligand, UniProt P08476 311-363, looked up)
chain: B1 chain with S54I, S55A, L56A, S60T, T61A, I63L, A108M
notes: range 1-53 of the mature chain;range 54-63 of the mature chain;range 64 to C-terminus of the mature chain
B5: activin-A/C chimera A/C 70-78 (ligand, UniProt P08476 311-379, looked up)
chain: B1 chain with G70T, H71A, S72A, P73G, F74T, A75T, N76G, L77G, K78G, A108M
notes: range 1-69 of the mature chain;range 70-78 of the mature chain;range 79 to C-terminus of the mature chain
B6: activin-A/C chimera A/C 46-53 (ligand, UniProt P08476 311-355, looked up)
chain: B1 chain with S46L, T51M, S52P, A108M
notes: range 1-45 of the mature chain;range 46-53 of the mature chain;range 54 to C-terminus of the mature chain
B7: activin-A S57A (ligand, human, UniProt P08476 311-426, looked up)
chain: B1 chain with S57A, A108M
B8: activin-A S60A/T61A (ligand, human, UniProt P08476 311-426, looked up)
chain: B1 chain with S60A, T61A, A108M
B9: activin-A A49G (ligand, human, UniProt P08476 311-426, looked up)
chain: B1 chain with A49G, A108M
B10: A/C-2.4 chimeric activin A/activin C protein (ligand, human, UniProt P08476 311-426, looked up)
chain: B1 chain with M68A, R69N, G70T, H71A, S72A, A108M
B11: activin-A Y35A (ligand, human, UniProt P08476 311-426, looked up)
chain: B1 chain with Y35A, A108M
B12: activin-A S52A/G53A/S54A (ligand, human, UniProt P08476 311-426, looked up)
chain: B1 chain with S52A, G53A, S54A, A108M
B13: A/C-2.1 chimeric activin A/activin C protein (ligand, human, UniProt P08476 311-426, looked up)
chain: B1 chain with S60T, T61A, I63L, A108M
B14: activin-A R69A/G70A/H71A (ligand, human, UniProt P08476 311-426, looked up)
chain: B1 chain with R69A, G70A, H71A, A108M
B15: activin-A V62P (ligand, human, UniProt P08476 311-426, looked up)
chain: B1 chain with V62P, A108M
B16: A/C-1 chimeric activin A/activin C protein (ligand, human, UniProt P08476 311-426, looked up)
chain: B1 chain with S46L, T51M, S52P, S54I, S55A, L56A, A108M
B17: activin-A N76A/L77A/K78A/S79A (ligand, human, UniProt P08476 311-426, looked up)
chain: B1 chain with N76A, L77A, K78A, S79A, A108M
B18: activin-A H65A/M68A (ligand, human, UniProt P08476 311-426, looked up)
chain: B1 chain with H65A, M68A, A108M
B19: activin-A A31Q (ligand, human, UniProt P08476 311-426, looked up)
chain: B1 chain with A31Q, A108M
B20: activin-A S90A (ligand, human, UniProt P08476 311-426, looked up)
chain: B1 chain with S90A, A108M
B21: A/C-2.2 chimeric activin A/activin C protein (ligand, human, UniProt P08476 311-426, looked up)
chain: B1 chain with I63L, H65L, Y66L, R67K, A108M
B22: activin-A G50A/T51A (ligand, human, UniProt P08476 311-426, looked up)
chain: B1 chain with G50A, T51A, A108M
B23: activin-A H59P (ligand, human, UniProt P08476 311-426, looked up)
chain: B1 chain with H59P, A108M
B24: activin-A W25A (ligand, human, UniProt P08476 311-426, looked up)
chain: B1 chain with W25A, A108M
B25: activin-A F58A/H59A (ligand, human, UniProt P08476 311-426, looked up)
chain: B1 chain with F58A, H59A, A108M
B26: A/C-2.3 chimeric activin A/activin C protein (ligand, human, UniProt P08476 311-426, looked up)
chain: B1 chain with Y66L, R67K, M68A, R69N, G70T, A108M
B27: activin-A L92A (ligand, human, UniProt P08476 311-426, looked up)
chain: B1 chain with L92A, A108M
B28: activin-A M91A (ligand, human, UniProt P08476 311-426, looked up)
chain: B1 chain with M91A, A108M
B29: activin-A V62A/I63A (ligand, human, UniProt P08476 311-426, looked up)
chain: B1 chain with V62A, I63A, A108M
B30: activin-A S57P (ligand, human, UniProt P08476 311-426, looked up)
chain: B1 chain with S57P, A108M
B31: activin-A I105A (ligand, human, UniProt P08476 311-426, looked up)
chain: B1 chain with I105A, A108M
B32: activin-A T61P (ligand, human, UniProt P08476 311-426, looked up)
chain: B1 chain with T61P, A108M
B33: activin-A P45A/S46A/H47A/I48A (ligand, human, UniProt P08476 311-426, looked up)
chain: B1 chain with P45A, S46A, H47A, I48A, A108M
B34: activin-A S55A/L56A (ligand, human, UniProt P08476 311-426, looked up)
chain: B1 chain with S55A, L56A, A108M
B35: A/C-2 chimeric activin A/activin C protein (ligand, human, UniProt P08476 311-426, looked up)
chain: GLECDGKVNICCKKQFFVSFKDIGWNDWIIAPSGYHANYCEGECPSHIAGTSGSSLSFHTAVLNLLKANTAAPFANLKSCCVPTKLRPMSMLYYDDGQNIIKKDIQNMIVEECGCS
B36: activin-A S60P (ligand, human, UniProt P08476 311-426, looked up)
chain: B1 chain with S60P, A108M
B37: activin-A M108E (ligand, human, UniProt P08476 311-426, looked up)
chain: B1 chain with A108E
B38: activin-A I105E (ligand, human, UniProt P08476 311-426, looked up)
chain: B1 chain with I105E, A108M
B39: activin-A M91E (ligand, human, UniProt P08476 311-426, looked up)
chain: B1 chain with M91E, A108M
B40: activin-A I63P (ligand, human, UniProt P08476 311-426, looked up)
chain: B1 chain with I63P, A108M

These binders were tested against type II activin receptors in 293T cells (assay: cell-based or functional assay).

| activin-A (100 pM) induced luciferase response in 293T cells with increasing amounts of M108A (fold induction) | myostatin (500 pM) induced luciferase response in 293T cells with increasing doses of M108A (fold induction) | Binder |
| --- | --- | --- |
| 23 | 26 | B1 |

These binders were tested against T3, mouse ActRII transfected into 293T cells (mouse, UniProt P27038 20-513) (assay: ActRII binding, 293T cells transfected with mouse ActRII).
T3 construct: whole, on cells
T3 sequence (P27038 20-513): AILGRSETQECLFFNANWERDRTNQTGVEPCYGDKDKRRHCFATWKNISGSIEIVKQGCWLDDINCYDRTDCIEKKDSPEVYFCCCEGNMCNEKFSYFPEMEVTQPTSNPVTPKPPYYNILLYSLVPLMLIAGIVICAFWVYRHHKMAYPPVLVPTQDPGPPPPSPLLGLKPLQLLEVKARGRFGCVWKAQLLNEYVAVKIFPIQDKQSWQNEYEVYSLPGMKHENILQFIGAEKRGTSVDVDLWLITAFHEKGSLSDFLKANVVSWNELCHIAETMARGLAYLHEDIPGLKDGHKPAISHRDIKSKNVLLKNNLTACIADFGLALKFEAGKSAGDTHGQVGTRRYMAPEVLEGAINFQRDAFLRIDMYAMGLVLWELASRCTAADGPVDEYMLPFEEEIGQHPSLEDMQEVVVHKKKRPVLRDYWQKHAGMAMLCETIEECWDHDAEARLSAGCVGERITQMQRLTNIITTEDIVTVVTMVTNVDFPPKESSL
Method: After the incubation cells were washed three times with HDB buffer and lysed with 1% SDS solution. Radioactivity in the lysate was determined using a gamma counter.
Therefore, the inventors contemplate engineering a series of activin-A chimeras, such as activin-A/C chimeras, preferably having a peptide tag such a FLAG tag, in each of […] in the wrist loop and helix (such as A/C 46-53, 54-63, 64-69, 70-78) are replaced. Additionally, a chimera was generated in which the entire wrist region (A/C 46-78) was changed from activin-A to activin-C or some other analogous TGF-β member. In one example, the chimeras were assessed for ActRII binding, activin bioactivity as well as antagonistic properties. […] Maximum activity of A/C 64-69 and 70-78, however, was reduced down to about 20-50% and 60-90%, respectively, when compared to wt activin. […] Additionally, A/C 46-78 decreased the basal and activin induced FSH release from cultured rat anterior pituitary cells in a concentration dependent manner. […] The activin antagonist A/C 46-78 may be useful for the study and modulation of activin dependent processes.

| binding result | Binder |
| --- | --- |
| binds | B2 |
| binds | B3 |
| binds | B4 |
| binds | B5 |
| binds | B6 |

The binders below were run against T1, ALK4 (activin type I receptor) (assay: cell-based or functional assay).

| % Activin Activity (A3-luciferase assay in 293T cells) (% of wild type activin-A) | Binder |
| --- | --- |
| 101 | B7 |
| 97 | B8 |
| 82 | B9 |
| 79 | B10 |
| 101 | B11 |
| 99 | B12 |
| 81 | B13 |
| 82 | B14 |
| 64 | B15 |
| 104 | B16 |
| 82 | B17 |
| 82 | B18 |
| 84 | B19 |
| 59 | B20 |
| 107 | B21 |
| 83 | B22 |
| 85 | B23 |
| 73 | B24 |
| 126 | B25 |
| 87 | B26 |
| 35 | B27 |
| 74 | B28 |
| 83 | B29 |
| 83 | B30 |
| 86 | B31 |
| 78 | B32 |
| 91 | B33 |
| 101 | B34 |

What follows are binders tested against T2, ALK4 (activin type I receptor) (assay: cell-based or functional assay).

| % Activin Activity (A3-luciferase assay in 293T cells) | Binder |
| --- | --- |
| 17 % of wild type activin-A | B35 |
| 17 % of wild type activin-A | B36 |
| 3 % of wild type activin-A | B37 |
| 13 % of wild type activin-A | B38 |
| 3 % of wild type activin-A | B39 |
| 19 % of wild type activin-A | B40 |
